The text below walks through data of patent US20150191543A1 (University of California, published 2015).

Experiment [1] concerns the target T1, soluble CD8αβ heterodimer fusion protein (mouse, UniProt P01731 28-151; P10300 22-138). As to the kind of experiment: SPR, Biacore 3000; minibody captured by goat anti-mouse IgG Fc, soluble monomeric sCD8αβ flowed at 0-100 nM. As to the method: (§1) Surface Plasmon Resonance (SPR) analysis was performed on a Biacore 3000 (Precision Antibody, Inc.). Briefly, Mbs were captured using goat anti-mouse IgG Fc and sCD8αβ antigen was flowed over the chip at 100, 50, 25, 12.5, 6.25 and 0 nM. The equilibrium constant (KD) was calculated from the observed on (kₐ) and off (kd) rates.
SPR kinetic analysis was performed using the Biacore 3000 with immobilized minibody and soluble monomeric sCD8αβ.
For orientation: SPR reads the build-up and loss of mass on a sensor chip optically.

Experiment [2] has as its target T1, soluble CD8αβ heterodimer fusion protein. As to the kind of experiment: SPR, Biacore 3000; minibody captured by goat anti-mouse IgG Fc, sCD8αβ as analyte at 0-100 nM. As to the method: FIG. 15A-to FIG. 15C depict the kinetic analysis of minibody binding to sCD8αβ antigen using SPR Biacore 3000. […] Soluble monovalent antigen was then flowed over the chip at 100 (green), 50 (magenta), 25 (red), 12.5 (dark blue), 6.25 (light blue), and 0 (black) nM.
as §1

Experiment [3] deals with T2, mouse CD8α, Lyt2.2 allele (mouse, UniProt P01731 28-247).
T2 construct: On the cells it is paired with CD8β (BW58 is Lyt2.2+, Lyt3+); also called CD8a Lyt2.2; CD8-Lyt2.2
T2 sequence (P01731 28-247 limits assumed): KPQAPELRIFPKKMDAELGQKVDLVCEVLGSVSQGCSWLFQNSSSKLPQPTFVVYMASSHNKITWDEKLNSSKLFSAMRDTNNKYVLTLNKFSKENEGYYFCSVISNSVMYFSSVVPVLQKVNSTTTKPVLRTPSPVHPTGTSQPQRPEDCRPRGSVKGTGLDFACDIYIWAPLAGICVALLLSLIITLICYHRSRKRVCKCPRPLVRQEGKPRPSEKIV
As to the kind of experiment: statement in Example 5; supported there only by in vivo immunoPET and biodistribution in C57Bl/6 mice.

For experiment [4], the target named is T3, mouse CD8α, Lyt2.1 allele (mouse, UniProt P01731 28-247).
T3 construct: Position 78 is counted on mature CD8a, not on the precursor; On the cells it is paired with CD8β (TK-1 is Lyt2.1+, Lyt3+); also called CD8a Lyt2.1; CD8-Lyt2.1
T3 sequence (P01731 28-247 M105V limits assumed): as the sequence (P01731 28-247 limits assumed) above, with M78V counted along it
As to the kind of experiment: statement in Example 5; supported there only by in vivo immunoPET and biodistribution in C3H mice.

T1 sequence (P10300 other isoform, or with tags, fused parts or gaps): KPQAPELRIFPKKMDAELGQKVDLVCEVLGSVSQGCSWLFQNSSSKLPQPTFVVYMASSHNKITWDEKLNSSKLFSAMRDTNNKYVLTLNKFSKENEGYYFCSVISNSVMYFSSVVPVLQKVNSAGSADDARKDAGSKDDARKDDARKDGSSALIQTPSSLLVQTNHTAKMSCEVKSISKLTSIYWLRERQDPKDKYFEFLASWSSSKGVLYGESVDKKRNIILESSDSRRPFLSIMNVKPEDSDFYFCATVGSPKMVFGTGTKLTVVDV

B1: anti-mCD8 2.43 minibody (other)
scFv: EVQLVESGGGLVQPGRSLKLSCAASGFTFSNYYMAWVRQAPTKGLEWVAYINTGGGTTYYRDSVKGRFTISRDDAKSTLYLQMDSLRSEDTATYYCTTAIGYYFDYWGQGVMVTVSSGSTSGGGSGGGSGGGGSSDIQLTQSPASLSASLGETVSIECLASEDIYSYLAWYQQKPGKSPQVLIYAANRLQDGVPSRFSGSGSGTQYSLKISGMQPEDEGDYFCLQGSKFPYTFGAGTKLELKLEPRGPTIKPCPPCKCPAPNLLGGPGSVRAPQVYVLPPPEEEMTKKQVTLTCMVTDFMPEDIYVEWTNNGKTELNYKNTEPVLDSDGSYFMYSKLRVEKKNWVERNSYSCSVVHEGLHNYHTTKSFSRTPGKAAAAGHLPETGAGHHHHHHAAA
notes: Minibody (scFv-hinge-CH3 homodimer, about 80 kDa; 19% higher multimers); Some assays used the NOTA/64Cu-labelled or FITC-labelled protein
Broadly, the Kd is the equilibrium constant for the complex coming apart. Low values mean a tighter complex, high ones a looser complex. Usually koff stands for a measure of how fast the partners let go of each other. A higher koff goes with fast dissociation. Broadly, the kon is the second-order rate constant of association. Lower therefore signals slow association. In turn, B1 showed a Kd in experiment [1] of 34 nM. In experiment [2], this molecule returned a Ka of 3e+07 M⁻¹, a koff of 0.0041 s⁻¹ and an association rate constant (kon) of 120000 M⁻¹ s⁻¹.

B2: anti-mCD8 2.43 Cys-diabody (other)
scFv: EVQLVESGGGLVQPGRSLKLSCAASGFTFSNYYMAWVRQAPTKGLEWVAYINTGGGTTYYRDSVKGRFTISRDDAKSTLYLQMDSLRSEDTATYYCTTAIGYYFDYWGQGVMVTVSSGGGGSDIQLTQSPASLSASLGETVSIECLASEDIYSYLAWYQQKPGKSPQVLIYAANRLQDGVPSRFSGSGSGTQYSLKISGMQPEDEGDYFCLQGSKFPYTFGAGTKLELKAAAGCGGHHHHHH
notes: Cys-diabody (scFv dimer, about 51 kDa)
Consider B2, for which the binding result is given as “binds” in experiment [3] and “no binding” in experiment [4].

B3: anti-mCD8 YTS 169 minibody (other)
scFv: EVKLQESGGGLVQPGRSLKLSCAASGFNFNDYWMGWVRQAPGKGLEWIGEINKDSSTINYTPSLKDKFTISRDNAQNTLYLQMSKLGSEDTAIYYCARARGMMVLIIPHYFDYWGQGVMVTVSSGSTSGGGSGGGSGGGGSSDIVLTQSPAMAMSPGERITISCRASESVSTRMHWYQQKPGQQPKLLIYGASNLESGVPARFSGSGSGTDFTLTIDPVEANDTATYFCQQSWYDPWTFGGGTKLELKLEPRGPTIKPCPPCKCPAPNLLGGPGSVRAPQVYVLPPPEEEMTKKQVTLTCMVTDFMPEDIYVEWTNNGKTELNYKNTEPVLDSDGSYFMYSKLRVEKKNWVERNSYSCSVVHEGLHNYHTTKSFSRTPGKAAAAGHLPETGAGHHHHHHAAA
notes: Minibody (scFv-hinge-CH3 homodimer); also called YTS169 Mb
Take B3: the dissociation constant Kd in experiment [1] is 33 nM. In experiment [2], this molecule had a Ka of 3e+07 M⁻¹, an off-rate (koff) of 0.0076 s⁻¹ and an on-rate (kon) of 230000 M⁻¹ s⁻¹.
